Assay results from IntAct's records for PubMed 31515488.

B1: Centrosomal protein of 55 kDa (Homo sapiens), Q53EZ4 (parent)
chain: MSSRSTKDLIKSKWGSKPSNSKSETTLEKLKGEIAHLKTSVDEITSGKGKLTDKERHRLLEKIRVLEAEKEKNAYQLTEKDKEIQRLRDQLKARYSTTTLLEQLEETTREGERREQVLKALSEEKDVLKQQLSAATSRIAELESKTNTLRLSQTVAPNCFNSSINNIHEMEIQLKDALEKNQQWLVYDQQREVYVKGLLAKIFELEKKTETAAHSLPQQTKKPESEGYLQEEKQKCYNDLLASAKKDLEVERQTITQLSFELSEFRRKYEETQKEVHNLNQLLYSQRRADVQHLEDDRHKTEKIQKLREENDIARGKLEEEKKRSEELLSQVQFLYTSLLKQQEEQTRVALLEQQMQACTLDFENEKLDRQHVQHQLHVILKELRKARNQITQLESLKQLHEFAITEPLVTFQGETENREKVAASPKSPTAALNESLVECPKCNIQYPATEHRDLLVHVEYCSK
partner: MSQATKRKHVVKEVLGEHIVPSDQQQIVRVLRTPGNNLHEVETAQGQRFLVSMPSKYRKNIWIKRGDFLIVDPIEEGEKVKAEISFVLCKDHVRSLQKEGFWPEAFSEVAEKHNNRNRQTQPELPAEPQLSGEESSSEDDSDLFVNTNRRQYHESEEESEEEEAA
B2: Migration and invasion-inhibitory protein (Homo sapiens), Q5JXC2 (parent)
chain: MVEAEELAQLRLLNLELLRQLWVGQDAVRRSVARAASESSLESSSSYNSETPSTPETSSTSLSTSCPRGRSSVWGPPDACRGDLRDVARSGVASLPPAKCQHQESLGRPRPHSAPSLGTSSLRDPEPSGRLGDPGPQEAQTPRSILAQQSKLSKPRVTFSEESAVPKRSWRLRPYLGYDWIAGSLDTSSSITSQPEAFFSKLQEFRETNKEECICSHPEPQLPGLRESSGSGVEEDHECVYCYRVNRRLFPVPVDPGTPCRLCRTPRDQQGPGTLAQPAHVRVSIPLSILEPPHRYHIHRRKSFDASDTLALPRHCLLGWDIFPPKSEKSSAPRNLDLWSSVSAEAQHQKLSGTSSPFHPASPMQMLPPTPTWSVPQVPRPHVPRQKP
B3: SH2 domain-containing protein 4A (Homo sapiens), Q9H788 (parent)
chain: MLKQILSEMYIDPDLLAELSEEQKQILFFKMREEQIRRWKEREAAMERKESLPVKPRPKKENGKSVHWKLGADKEVWVWVMGEHHLDKPYDVLCNEIIAERARLKAEQEAEEPRKTHSEEFTNSLKTKSQYHDLQAPDNQQTKDIWKKVAEKEELEQGSRPAPTLEEEKIRSLSSSSRNIQQMLADSINRMKAYAFHQKKESMKKKQDEEINQIEEERTKQICKSWKEDSEWQASLRKSKAADEKRRSLAKQAREDYKRLSLGAQKGRGGERLQSPLRVPQKPERPPLPPKPQFLNSGAYPQKPLRNQGVVRTLSSSAQEDIIRWFKEEQLPLRAGYQKTSDTIAPWFHGILTLKKANELLLSTGMPGSFLIRVSERIKGYALSYLSEDGCKHFLIDASADAYSFLGVDQLQHATLADLVEYHKEEPITSLGKELLLYPCGQQDQLPDYLELFE
B4: ATP synthase mitochondrial F1 complex assembly factor 2 (Homo sapiens), Q8N5M1 (parent)
chain: MWRSCLRLRDGGRRLLNRPAGGPSASMSPGPTIPSPARAYAPPTERKRFYQNVSITQGEGGFEINLDHRKLKTPQAKLFTVPSEALAIAVATEWDSQQDTIKYYTMHLTTLCNTSLDNPTQRNKDQLIRAAVKFLDTDTICYRVEEPETLVELQRNEWDPIIEWAEKRYGVEISSSTSIMGPSIPAKTREVLVSHLASYNTWALQGIEFVAAQLKSMVLTLGLIDLRLTVEQAVLLSRLEEEYQIQKWGNIEWAHDYELQELRARTAAGTLFIHLCSESTTVKHKLLKE
partner: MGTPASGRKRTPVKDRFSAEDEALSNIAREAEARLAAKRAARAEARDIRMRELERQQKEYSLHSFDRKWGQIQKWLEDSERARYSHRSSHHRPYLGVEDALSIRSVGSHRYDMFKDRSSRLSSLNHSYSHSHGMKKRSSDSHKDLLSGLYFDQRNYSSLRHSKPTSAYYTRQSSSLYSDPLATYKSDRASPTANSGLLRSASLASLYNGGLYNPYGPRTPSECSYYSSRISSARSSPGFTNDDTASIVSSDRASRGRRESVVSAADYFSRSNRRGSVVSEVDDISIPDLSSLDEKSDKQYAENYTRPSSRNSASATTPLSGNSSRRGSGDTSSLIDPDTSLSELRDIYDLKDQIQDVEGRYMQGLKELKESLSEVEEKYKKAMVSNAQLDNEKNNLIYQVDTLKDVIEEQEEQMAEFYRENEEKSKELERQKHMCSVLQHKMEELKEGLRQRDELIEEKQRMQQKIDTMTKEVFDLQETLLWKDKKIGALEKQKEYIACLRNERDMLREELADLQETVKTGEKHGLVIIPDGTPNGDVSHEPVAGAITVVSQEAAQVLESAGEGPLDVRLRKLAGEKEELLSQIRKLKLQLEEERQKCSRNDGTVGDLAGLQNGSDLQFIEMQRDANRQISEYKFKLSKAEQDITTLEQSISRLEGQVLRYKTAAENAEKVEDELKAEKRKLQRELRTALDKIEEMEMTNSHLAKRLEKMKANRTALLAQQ
B5: Rho guanine nucleotide exchange factor 3 (Homo sapiens), Q9NR81 (parent)
chain: MVAKDYPFYLTVKRANCSLELPPASGPAKDAEEPSNKRVKPLSRVTSLANLIPPVKATPLKRFSQTLQRSISFRSESRPDILAPRPWSRNAAPSSTKRRDSKLWSETFDVCVNQMLTSKEIKRQEAIFELSQGEEDLIEDLKLAKKAYHDPMLKLSIMTEQELNQIFGTLDSLIPLHEELLSQLRDVRKPDGSTEHVGPILVGWLPCLSSYDSYCSNQVAAKALLDHKKQDHRVQDFLQRCLESPFSRKLDLWNFLDIPRSRLVKYPLLLREILRHTPNDNPDQQHLEEAINIIQGIVAEINTKTGESECRYYKERLLYLEEGQKDSLIDSSRVLCCHGELKNNRGVKLHVFLFQEVLVITRAVTHNEQLCYQLYRQPIPVKDLLLEDLQDGEVRLGGSLRGAFSNNERIKNFFRVSFKNGSQSQTHSLQANDTFNKQQWLNCIRQAKETVLCAAGQAGVLDSEGSFLNPTTGSRELQGETKLEQMDQSDSESDCSMDTSEVSLDCERMEQTDSSCGNSRHGESNV
B6: Calcium-binding and coiled-coil domain-containing protein 2 (Homo sapiens), Q13137 (parent)
chain: MEETIKDPPTSAVLLDHCHFSQVIFNSVEKFYIPGGDVTCHYTFTQHFIPRRKDWIGIFRVGWKTTREYYTFMWVTLPIDLNNKSAKQQEVQFKAYYLPKDDEYYQFCYVDEDGVVRGASIPFQFRPENEEDILVVTTQGEVEEIEQHNKELCKENQELKDSCISLQKQNSDMQAELQKKQEELETLQSINKKLELKVKEQKDYWETELLQLKEQNQKMSSENEKMGIRVDQLQAQLSTQEKEMEKLVQGDQDKTEQLEQLKKENDHLFLSLTEQRKDQKKLEQTVEQMKQNETTAMKKQQELMDENFDLSKRLSENEIICNALQRQKERLEGENDLLKRENSRLLSYMGLDFNSLPYQVPTSDEGGARQNPGLAYGNPYSGIQESSSPSPLSIKKCPICKADDICDHTLEQQQMQPLCFNCPICDKIFPATEKQIFEDHVFCHSL
partner: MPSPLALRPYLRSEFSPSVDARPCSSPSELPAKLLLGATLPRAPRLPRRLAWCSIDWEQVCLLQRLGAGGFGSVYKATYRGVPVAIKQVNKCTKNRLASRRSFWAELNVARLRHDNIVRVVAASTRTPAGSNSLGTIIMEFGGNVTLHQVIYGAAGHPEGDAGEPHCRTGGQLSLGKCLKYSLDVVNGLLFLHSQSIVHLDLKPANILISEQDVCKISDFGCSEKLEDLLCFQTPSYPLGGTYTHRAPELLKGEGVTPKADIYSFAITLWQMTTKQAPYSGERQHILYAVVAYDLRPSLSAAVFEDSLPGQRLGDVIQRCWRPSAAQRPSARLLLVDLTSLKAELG
B7: Isoform 1 of Nucleoporin p54 (Homo sapiens), Q7Z3B4-1 (parent)
chain: MAFNFGAPSGTSGTAAATAAPAGGFGGFGTTSTTAGSAFSFSAPTNTGTTGLFGGTQNKGFGFGTGFGTTTGTSTGLGTGLGTGLGFGGFNTQQQQQTTLGGLFSQPTQAPTQSNQLINTASALSAPTLLGDERDAILAKWNQLQAFWGTGKGYFNNNIPPVEFTQENPFCRFKAVGYSCMPSNKDEDGLVVLVFNKKETEIRSQQQQLVESLHKVLGGNQTLTVNVEGTKTLPDDQTEVVIYVVERSPNGTSRRVPATTLYAHFEQANIKTQLQQLGVTLSMTRTELSPAQIKQLLQNPPAGVDPIIWEQAKVDNPDSEKLIPVPMVGFKELLRRLKVQDQMTKQHQTRLDIISEDISELQKNQTTSVAKIAQYKRKLMDLSHRTLQVLIKQEIQRKSGYAIQADEEQLRVQLDTIQGELNAPTQFKGRLNELMSQIRMQNHFGAVRSEERYYIDADLLREIKQHLKQQQEGLSHLISIIKDDLEDIKLVEHGLNETIHIRGGVFS

Variants of: B1
Details: with eif1a_human EIF1AD

effect of a mutation on the interaction	Variant
with no effect	A244P

Variants of: B2
Details: with stk16_human STK16, O75716
Sequence of stk16_human STK16, O75716 (O75716 whole entry): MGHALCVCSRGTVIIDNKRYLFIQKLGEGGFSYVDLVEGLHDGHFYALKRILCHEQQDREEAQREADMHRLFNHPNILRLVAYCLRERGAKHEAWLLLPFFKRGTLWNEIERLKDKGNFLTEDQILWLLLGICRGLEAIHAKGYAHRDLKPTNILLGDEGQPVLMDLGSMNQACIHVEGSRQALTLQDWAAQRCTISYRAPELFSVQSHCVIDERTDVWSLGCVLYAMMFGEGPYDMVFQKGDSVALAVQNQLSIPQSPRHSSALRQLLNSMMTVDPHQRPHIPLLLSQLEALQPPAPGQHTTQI

effect of a mutation on the interaction	Variant
with no effect	R171C

Variants of: B3
Details: with tfp11_human TFIP11, Q9UBB9
Sequence of tfp11_human TFIP11, Q9UBB9 (Q9UBB9 whole entry): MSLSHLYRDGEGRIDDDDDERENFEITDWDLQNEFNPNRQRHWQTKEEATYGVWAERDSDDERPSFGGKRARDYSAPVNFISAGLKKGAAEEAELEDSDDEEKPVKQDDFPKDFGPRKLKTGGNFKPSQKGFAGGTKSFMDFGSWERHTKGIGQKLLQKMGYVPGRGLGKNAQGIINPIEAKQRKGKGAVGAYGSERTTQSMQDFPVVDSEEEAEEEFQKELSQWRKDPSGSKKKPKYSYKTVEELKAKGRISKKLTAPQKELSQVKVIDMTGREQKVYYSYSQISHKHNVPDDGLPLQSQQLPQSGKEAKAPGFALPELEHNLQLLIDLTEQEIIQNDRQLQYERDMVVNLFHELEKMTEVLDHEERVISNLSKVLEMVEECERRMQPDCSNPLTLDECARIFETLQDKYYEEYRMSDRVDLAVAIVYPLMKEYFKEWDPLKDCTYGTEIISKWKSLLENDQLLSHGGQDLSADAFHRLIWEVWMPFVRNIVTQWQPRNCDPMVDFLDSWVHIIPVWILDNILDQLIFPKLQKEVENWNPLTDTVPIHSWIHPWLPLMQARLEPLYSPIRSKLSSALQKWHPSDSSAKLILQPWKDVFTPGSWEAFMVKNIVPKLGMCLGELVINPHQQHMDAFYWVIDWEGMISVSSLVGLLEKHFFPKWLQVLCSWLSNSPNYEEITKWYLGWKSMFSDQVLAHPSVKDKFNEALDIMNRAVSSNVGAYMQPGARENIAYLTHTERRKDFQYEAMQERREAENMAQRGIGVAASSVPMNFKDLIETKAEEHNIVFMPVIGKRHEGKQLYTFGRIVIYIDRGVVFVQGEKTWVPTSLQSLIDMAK

effect of a mutation on the interaction	Variant
with no effect	K303R
with no effect	E216G
with no effect	G263A

Variants of: B3
Details: with tacc1_human TACC1, O75410
Sequence of tacc1_human TACC1, O75410 (O75410 whole entry): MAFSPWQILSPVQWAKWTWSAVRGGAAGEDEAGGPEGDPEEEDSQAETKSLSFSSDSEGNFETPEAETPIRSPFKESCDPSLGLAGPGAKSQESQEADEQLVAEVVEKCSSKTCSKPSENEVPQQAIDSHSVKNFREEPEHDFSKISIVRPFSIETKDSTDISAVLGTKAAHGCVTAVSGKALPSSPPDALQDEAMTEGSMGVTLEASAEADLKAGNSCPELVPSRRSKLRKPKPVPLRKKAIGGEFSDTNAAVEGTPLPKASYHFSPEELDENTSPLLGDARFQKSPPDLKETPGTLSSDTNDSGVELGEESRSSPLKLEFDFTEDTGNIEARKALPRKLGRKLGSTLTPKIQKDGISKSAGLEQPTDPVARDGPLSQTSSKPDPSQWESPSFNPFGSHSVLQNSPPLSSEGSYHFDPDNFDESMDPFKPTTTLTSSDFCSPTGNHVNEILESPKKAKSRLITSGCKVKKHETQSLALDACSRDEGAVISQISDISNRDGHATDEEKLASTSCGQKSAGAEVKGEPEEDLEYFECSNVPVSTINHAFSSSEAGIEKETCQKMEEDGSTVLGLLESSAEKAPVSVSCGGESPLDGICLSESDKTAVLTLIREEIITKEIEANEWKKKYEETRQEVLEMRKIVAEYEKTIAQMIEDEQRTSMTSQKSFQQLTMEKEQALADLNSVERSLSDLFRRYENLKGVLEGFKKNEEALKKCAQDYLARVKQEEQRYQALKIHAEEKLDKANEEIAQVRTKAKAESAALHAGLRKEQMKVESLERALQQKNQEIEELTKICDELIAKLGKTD

effect of a mutation on the interaction	Variant
with no effect	K303R
with no effect	E216G
with no effect	G263A

Variants of: B3
Details: with ldoc1_human LDOC1, O95751
Sequence of ldoc1_human LDOC1, O95751 (O95751 whole entry): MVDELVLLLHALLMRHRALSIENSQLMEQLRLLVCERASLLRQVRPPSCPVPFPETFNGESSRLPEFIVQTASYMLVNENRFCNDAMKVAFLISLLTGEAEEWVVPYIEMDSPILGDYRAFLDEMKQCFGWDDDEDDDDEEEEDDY

effect of a mutation on the interaction	Variant
with no effect	K303R
with no effect	E216G
with no effect	G263A

Variants of: B4
Details: with lrrf2_human LRRFIP2, Q9Y608

effect of a mutation on the interaction	Variant
with no effect	E241G

Variants of: B5
Details: with tri23_human TRIM23, P36406
Sequence of tri23_human TRIM23, P36406 (P36406 whole entry): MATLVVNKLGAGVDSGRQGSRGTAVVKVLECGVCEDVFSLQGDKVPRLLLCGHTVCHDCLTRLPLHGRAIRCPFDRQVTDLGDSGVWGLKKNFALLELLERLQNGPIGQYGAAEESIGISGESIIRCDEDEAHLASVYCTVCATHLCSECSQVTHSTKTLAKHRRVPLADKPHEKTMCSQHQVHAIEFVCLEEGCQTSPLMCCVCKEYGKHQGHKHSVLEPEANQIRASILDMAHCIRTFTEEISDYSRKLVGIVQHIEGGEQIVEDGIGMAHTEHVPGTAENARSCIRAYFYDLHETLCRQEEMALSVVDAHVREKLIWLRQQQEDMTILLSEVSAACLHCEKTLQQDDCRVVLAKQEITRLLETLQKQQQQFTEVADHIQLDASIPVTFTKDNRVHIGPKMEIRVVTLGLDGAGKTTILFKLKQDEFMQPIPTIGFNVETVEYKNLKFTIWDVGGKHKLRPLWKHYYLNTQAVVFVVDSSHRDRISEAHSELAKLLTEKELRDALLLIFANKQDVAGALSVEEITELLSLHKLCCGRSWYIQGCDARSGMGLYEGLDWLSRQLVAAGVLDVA

effect of a mutation on the interaction	Variant
with no effect	N432S

Variants of: B6
Details: with mos_human MOS

effect of a mutation on the interaction	Variant
with no effect	E222K

Variants of: B7
Details: with nup58_human NUP58, Q9BVL2
Sequence of nup58_human NUP58, Q9BVL2 (Q9BVL2 whole entry): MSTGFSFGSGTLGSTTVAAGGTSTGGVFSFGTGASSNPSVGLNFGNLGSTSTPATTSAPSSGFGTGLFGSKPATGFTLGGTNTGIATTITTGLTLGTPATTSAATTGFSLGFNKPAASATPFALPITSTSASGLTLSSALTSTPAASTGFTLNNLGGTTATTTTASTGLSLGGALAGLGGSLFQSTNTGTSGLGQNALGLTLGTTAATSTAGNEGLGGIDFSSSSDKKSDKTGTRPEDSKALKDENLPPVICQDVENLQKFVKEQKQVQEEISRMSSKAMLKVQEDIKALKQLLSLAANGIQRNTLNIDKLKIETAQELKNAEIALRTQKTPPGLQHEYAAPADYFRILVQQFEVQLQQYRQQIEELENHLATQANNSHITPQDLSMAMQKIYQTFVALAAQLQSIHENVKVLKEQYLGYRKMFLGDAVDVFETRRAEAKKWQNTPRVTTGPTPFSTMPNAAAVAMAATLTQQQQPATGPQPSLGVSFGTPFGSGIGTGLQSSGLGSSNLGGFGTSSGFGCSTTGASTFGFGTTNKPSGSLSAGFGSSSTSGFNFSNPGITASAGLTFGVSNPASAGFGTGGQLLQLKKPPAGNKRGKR

effect of a mutation on the interaction	Variant
with no effect	T416A

Variants of: B7
Details: with hgs_human HGS

effect of a mutation on the interaction	Variant
with no effect	T416A

Variants of: B7
Details: with nup62_human NUP62, P37198
Sequence of nup62_human NUP62, P37198 (P37198 whole entry): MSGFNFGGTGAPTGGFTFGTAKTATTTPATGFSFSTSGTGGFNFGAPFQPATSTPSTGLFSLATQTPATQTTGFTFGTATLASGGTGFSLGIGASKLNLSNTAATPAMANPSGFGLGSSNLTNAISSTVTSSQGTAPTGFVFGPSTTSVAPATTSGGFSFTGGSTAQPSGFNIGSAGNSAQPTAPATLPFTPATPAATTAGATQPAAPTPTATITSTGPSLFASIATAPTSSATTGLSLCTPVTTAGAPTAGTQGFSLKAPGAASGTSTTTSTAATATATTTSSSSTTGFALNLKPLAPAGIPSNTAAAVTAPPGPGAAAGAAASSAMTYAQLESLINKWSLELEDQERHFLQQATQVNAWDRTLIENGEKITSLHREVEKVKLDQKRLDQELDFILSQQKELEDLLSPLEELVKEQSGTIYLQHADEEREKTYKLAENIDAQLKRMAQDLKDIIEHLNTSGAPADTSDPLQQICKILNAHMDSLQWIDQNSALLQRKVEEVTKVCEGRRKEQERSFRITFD

effect of a mutation on the interaction	Variant
with no effect	T416A

Variants of: B7
Details: with KRT15, P19012
Sequence of KRT15, P19012 (P19012 whole entry): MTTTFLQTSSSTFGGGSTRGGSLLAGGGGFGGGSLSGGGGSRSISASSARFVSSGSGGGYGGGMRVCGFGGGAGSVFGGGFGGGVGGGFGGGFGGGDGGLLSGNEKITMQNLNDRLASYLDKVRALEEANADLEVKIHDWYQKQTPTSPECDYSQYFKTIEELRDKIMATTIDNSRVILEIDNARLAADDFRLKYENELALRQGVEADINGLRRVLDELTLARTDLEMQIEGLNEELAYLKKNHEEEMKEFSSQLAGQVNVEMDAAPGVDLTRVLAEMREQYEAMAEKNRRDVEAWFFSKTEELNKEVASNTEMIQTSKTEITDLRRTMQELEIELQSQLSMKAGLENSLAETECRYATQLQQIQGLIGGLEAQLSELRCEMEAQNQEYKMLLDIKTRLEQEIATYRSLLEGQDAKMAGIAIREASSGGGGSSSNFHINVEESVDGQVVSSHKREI

effect of a mutation on the interaction	Variant
with no effect	T416A

Variants of: B7
Details: with nup62_human NUP62, P37198
Remark: another data set of the same source

effect of a mutation on the interaction	Variant
with no effect	R385K
with no effect	N250S

Variants of: B7
Details: with nup58_human NUP58, Q9BVL2
Remark: another data set of the same source

effect of a mutation on the interaction	Variant
with no effect	R385K
with no effect	N250S

Variants of: B7
Details: with hgs_human HGS
Remark: another data set of the same source

effect of a mutation on the interaction	Variant
with no effect	R385K
with no effect	N250S

Variants of: B7
Details: with KRT15, P19012
Remark: another data set of the same source

effect of a mutation on the interaction	Variant
with no effect	R385K
with no effect	N250S
